In patent US6660841:

Molecular target: Gal4-DBD/CREM (UniProt P04386)
Assay: cell-based or functional assay

## ACT/Gal4-AD (from UniProt Q9WTX7 1-284)
  activity in yeast (β-galactosidase reporter), compared with ACT (fold (against ACT)): 2
